In patent US20040052799:

Target: T1, N-succinyl-Ala-Ala-Pro-Phe-p-nitroanilide
T1 chain: AAPF

B1: Recombinant H. pylori peptidyl-prolyl cis-trans isomerase (ppiB), His-tagged (protein)
chain: FIAIIEHLNDKSLSQRFMMKPIKTYDIKEEELAKTAYATIKTNKGNITLELFYKDAPQAVSNFVTLAKEGFYNGLNFHRVIAGFVAQGGCPYGTGTGGPEHRIKCEVAHNPNKHQRGSISMAHAGRDTGGSQFFLCFVDLPHLDGEHTVFGKITSAESLSVLDKIKQGDIIESVVFSPSL
  kcat: This corresponds to a kcat of 1.6 sec^-1
